Data: patent EP4592315A1 (Biotheus Inc., dated 2024)
Each block holds one binder with its values, some of them ahead of it.

Key:
human 4-1BB = molecular target: T1, human 4-1BB (human, UniProt Q07011 24-255); assay: flow cytometry on CHOS-h4-1BB cells (overexpressing human 4-1BB), anti-human IgG-Fc PE
T1 construct: whole, on cells; also called h4-1BB; CD137

human FcγRIIb = molecular target: T2, human FcγRIIb (human, UniProt P31994 43-310); assay: flow cytometry on CHOS-hCD32b cells (overexpressing human FcγRIIb), anti-human IgG-Fc PE
T2 construct: whole, on cells; also called hCD32b; CD32b
T2 sequence (looked up): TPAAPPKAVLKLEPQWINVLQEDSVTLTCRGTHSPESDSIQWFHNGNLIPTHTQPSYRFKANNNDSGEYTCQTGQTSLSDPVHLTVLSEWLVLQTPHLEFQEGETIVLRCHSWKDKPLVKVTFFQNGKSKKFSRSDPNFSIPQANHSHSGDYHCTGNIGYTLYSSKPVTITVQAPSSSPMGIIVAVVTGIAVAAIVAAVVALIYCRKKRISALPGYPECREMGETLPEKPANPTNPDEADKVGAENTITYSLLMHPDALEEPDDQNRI

T1 sequence (Q07011 24-255): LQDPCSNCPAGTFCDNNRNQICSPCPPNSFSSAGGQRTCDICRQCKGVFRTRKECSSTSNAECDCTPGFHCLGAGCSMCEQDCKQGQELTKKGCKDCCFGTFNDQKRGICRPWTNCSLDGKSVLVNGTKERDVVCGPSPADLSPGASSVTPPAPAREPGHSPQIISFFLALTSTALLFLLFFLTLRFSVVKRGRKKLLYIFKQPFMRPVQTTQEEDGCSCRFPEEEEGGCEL

EC50 (human 4-1BB): 0.316 nM
B1: Urelumab (antibody, human IgG4 S228P, kappa)
heavy: not shown
light: not shown
notes: also called Urelumab Analog; copies: 2 + 2

EC50 (human FcγRIIb): 1.06 nM
EC50 (human 4-1BB): 6.99 nM
B2: HER2xHER2x4-1BB-1 (bispecific antibody, human IgG1, kappa)
heavy 1: not shown
light 1: DIQMTQSPSSLSASVGDRVTITCRASQSVQGAVAWYQQKPGKAPKLLIYSASFLYSGVPSRFSGSRSGTDFTLTISSLQPEDFATYYCQQHSTTPPTFGQGTKVEIKRTVAAPSVFIFPPSDEQLKSGRASVVCLLNNFYPREAKVQWKVDNALQSGNSQESVTEQDSKDSTYSLSSRLQLSKADYEKHKVYACEVTHQGLSSPVTKSFNRGEC
heavy 2: not shown
light 2: DIQMTQSPSSLSASVGDRVTITCKASQDVSIGVAWYQQKPGKAPKLLIYSASYRYTGVPSRFSGSGSGTDFTLTISSLQPEDFATYYCQQYYIYPYTFGQGTKVEIKRTVAAPSVFIFPPSDEELKSGTASVQCLLNNFYPREAKVQWKVDNALQSGNSQESVTEQDSKDSTYSLSSELTLSKADYEKHKVYACEVTHQGLSSPVTKSFNRGEC
notes: also called HER2×HER2×4-1BB-1; HER2 × HER2 × 4-1BB-1
